Reference: PMC6886185, “eIF4A2 drives repression of translation at initiation by Ccr4-Not through purine-rich motifs in the 5′UTR”

Legend:
eIF4A2 [1] = molecular target: T1, eIF4A2 (UniProt Q14240 1-407); assay: competition; 20-fold excess; readily displaces pre-bound FAM-(CAA)6CA; 20 mM Hepes/KOH pH 7.5, 100 (mM) KCl, 1 mM MgCl2, 1 mM AMP-PNP, 1 mM TCEP, 0.1% DMSO, +/-50 uM silvestrol (10 uM in Fig 4a legend), 60 min, 25 C; numeric Kd of; details: protein: recombinant; tags: SUMO tag cleaved; label: none; single strand
eIF4A1 = eIF4A1 (UniProt P60842 1-406); assay: fluorescence anisotropy; AMP-PNP; 20 mM Hepes/KOH pH 7.5, 100 (mM) KCl, 1 mM MgCl2, 1 mM AMP-PNP, 1 mM TCEP, 0.1% DMSO, +/-50 uM silvestrol (10 uM in Fig 4a legend), 60 min, 25 C; numeric Kd of; details: protein: recombinant; tags: SUMO tag cleaved; label: FAM; blunt
eIF4A2 [2] = molecular target: T1, eIF4A2; assay: as above; details: protein: recombinant; tags: SUMO tag cleaved; label: FAM; blunt
eIF4A2 [3] = molecular target: T1, eIF4A2; assay: fluorescence anisotropy; 1 mM AMP-PNP, 1 mM Mg2+; 20 mM Hepes/KOH pH 7.5, 100 (mM) KCl, 1 mM MgCl2, 1 mM AMP-PNP, 1 mM TCEP, 0.1% DMSO, +/-50 uM silvestrol (10 uM in Fig 4a legend), 60 min, 25 C; numeric Kd of; details: protein: recombinant; tags: SUMO tag cleaved; label: 5' FAM; single strand, unstructured
eIF4A2 [4] = molecular target: T1, eIF4A2; assay: EMSA; AMP-PNP; bound even under high molar excess of (CAA)6CA; 20 mM Hepes/KOH pH 7.5, 100 (mM) KCl, 1 mM MgCl2, 1 mM AMP-PNP, 1 mM TCEP, 0.1% DMSO, +/-50 uM silvestrol (10 uM in Fig 4a legend), 60 min, 25 C; numeric Kd of; details: protein: recombinant; tags: SUMO tag cleaved; label: Dy780; single strand

T1 sequence (Q14240 whole entry): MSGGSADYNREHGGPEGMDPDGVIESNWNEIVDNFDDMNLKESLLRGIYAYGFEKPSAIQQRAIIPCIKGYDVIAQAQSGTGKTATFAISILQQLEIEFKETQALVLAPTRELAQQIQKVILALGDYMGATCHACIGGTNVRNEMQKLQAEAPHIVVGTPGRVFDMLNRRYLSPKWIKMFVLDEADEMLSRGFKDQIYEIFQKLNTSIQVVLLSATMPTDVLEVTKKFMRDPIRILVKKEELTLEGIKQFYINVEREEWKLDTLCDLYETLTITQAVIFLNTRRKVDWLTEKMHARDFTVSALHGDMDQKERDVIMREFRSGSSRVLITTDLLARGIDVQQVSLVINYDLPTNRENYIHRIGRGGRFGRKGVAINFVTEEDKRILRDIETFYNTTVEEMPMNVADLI
Chain of eIF4A1 (P60842 whole entry): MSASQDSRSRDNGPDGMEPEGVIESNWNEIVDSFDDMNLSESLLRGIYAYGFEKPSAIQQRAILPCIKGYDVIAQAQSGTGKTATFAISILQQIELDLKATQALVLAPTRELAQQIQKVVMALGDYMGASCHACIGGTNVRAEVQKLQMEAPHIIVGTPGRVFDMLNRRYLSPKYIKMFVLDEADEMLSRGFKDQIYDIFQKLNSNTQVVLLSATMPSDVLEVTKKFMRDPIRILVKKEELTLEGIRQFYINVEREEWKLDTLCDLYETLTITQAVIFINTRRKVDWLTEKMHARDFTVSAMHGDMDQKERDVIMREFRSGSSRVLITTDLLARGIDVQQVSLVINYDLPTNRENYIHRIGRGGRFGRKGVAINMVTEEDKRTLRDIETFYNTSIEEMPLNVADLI

AGAGAGAGAGAGAGAGAGAG (ssRNA) [(AG)10 unlabelled competitor]
binding result (eIF4A2 [1]): binds

B1: (AG)10:(CU)10 dsRNA (dsRNA)
RNA 1: AGAGAGAGAGAGAGAGAGAG
RNA 2: CUCUCUCUCUCUCUCUCUCU
binding result (eIF4A1): no binding
binding result (eIF4A2 [2]): no binding

AGAGAGAGAGAGAGAGAGAG (ssRNA) [(AG)10 ssRNA]
binding result (eIF4A2 [3]): binds

AGAGAGAGAGAGAGAGAGAG (ssRNA) [Dy780-(AG)10 ssRNA]
binding result (eIF4A2 [4]): binds
